koff and Kd data for two molecules are collected here from paper PMC7846742 (2021).

For orientation: koff means the first-order rate constant of dissociation. The term Kd denotes a measure of binding affinity in units of concentration. Lower therefore signals a tighter complex.

The experiment has as its target AviTag-His6-OAZ-GSY-SPM-Ctag (wt, with C175A) (human | Neisseria meningitidis …, UniProt Q9JYV5 414-657, biotin on the AviTag). The experiment can be described thus: SPR.

B1: His6-ODC-Ctag (human Ornithine Decarboxylase) (enzyme)
chain: NNFGNEEFDCHFLDEGFTAKDILDQKINEVSSSDDKDAFYVADLGDILKKHLRWLKALPRVTPFYAVKCNDSKAIVKTLAATGTGFDCASKTEIQLVQSLGVPPERIIYANPCKQVSQIKYAANNGVQMMTFDSEVELMKVARAHPKAKLVLRIATDDSKAVCRLSVKFGATLRTSRLLLERAKELNIDVVGVSFHVGSGCTDPETFVQAISDARCVFDMGAEVGFSMYLLDIGGGFPGSEDVKLKFEEITGVINPALDKYFPSDSGVRIIAEPGRYYVASAFTLAVNIIAKKIVLKEQTGSDDEDESSEQTFMYYVNDGVYGSFNCILYDHAHVKPLLQKRPKPDEKYYSSSIWGPTCDGLDRIVERCDLPEMHVGDWMLFENMGAYTVAAASTFNGFQRPTIYYVMSGPAWQLMQQFQ
B1 came in with an off-rate constant (koff) of 0.0028 s⁻¹.

B2: ODC ΔN 4KR (enzyme)
chain: DCHFLDEGFTAKDILDQKINEVSSSDDKDAFYVADLGDILKKHLRWLKALPRVTPFYAVKCNDSRAIVRTLAATGTGFDCASRTEIQLVQSLGVPPERIIYANPCKQVSQIRYAANNGVQMMTFDSEVELMKVARAHPKAKLVLRIATDDSKAVCRLSVKFGATLRTSRLLLERAKELNIDVVGVSFHVGSGCTDPETFVQAISDARCVFDMGAEVGFSMYLLDIGGGFPGSEDVKLKFEEITGVINPALDKYFPSDSGVRIIAEPGRYYVASAFTLAVNIIAKKIVLKEQTGSDDEDESSEQTFMYYVNDGVYGSFNCILYDHAHVKPLLQKRPKPDEKYYSSSIWGPTCDGLDRIVERCDLPEMHVGDWMLFENMGAYTVAAASTFNGFQRPTIYYVMSGPAWQLMQQFQNPDFPPEVEEQDASTLPVSCAWESGMKRHRAACASASIN
For B2, binding was put at a Kd of 22 nM and the koff was 0.0024 s⁻¹.
